Data as given in patent US20090197805A1, “Insulin receptor antagonists and related compositions, uses and methods” (Novo Nordisk A/S, priority 2005, published 2009).
Ends that are not written are not given here.

Assays:
IGF1 receptor = assay: competition binding assay with 125I-labeled IGF1 on the IGF1 receptor; reference IGF1
insulin receptor = assay: competition binding assay with 125I-labeled insulin on the insulin receptor; reference human insulin

## GSLDESFYDWFERQLGGGSGGSSLEEEWAQIQCEVWGRGCPSY-NH2 (cysteine pairing not given here) [PIRA S661 (…-amide)]
IGF1 receptor
  fold lower affinity than IGF1: 200000 fold
Insulin receptor
  affinity relative to human insulin: 48%
